Target: Flag-tagged full-length mouse sphingosine 1-phosphate receptor-1 (S1P1) (mouse, UniProt O08530 1-382)
Assay: co-IP

Chain of Flag-tagged full-length mouse sphingosine 1-phosphate receptor-1 (S1P1) (O08530 whole entry): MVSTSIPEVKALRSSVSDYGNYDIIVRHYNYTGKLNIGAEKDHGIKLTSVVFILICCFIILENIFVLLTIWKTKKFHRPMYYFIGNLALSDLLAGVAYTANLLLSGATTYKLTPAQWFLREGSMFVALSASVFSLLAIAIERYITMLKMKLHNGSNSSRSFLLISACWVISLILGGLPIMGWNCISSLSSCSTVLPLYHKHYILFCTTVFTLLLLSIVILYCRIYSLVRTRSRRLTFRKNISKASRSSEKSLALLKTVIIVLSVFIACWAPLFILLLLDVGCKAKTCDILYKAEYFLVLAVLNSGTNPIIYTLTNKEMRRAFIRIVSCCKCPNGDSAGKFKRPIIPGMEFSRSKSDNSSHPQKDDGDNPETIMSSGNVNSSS

B1: HA-tagged mouse CD69 (natural protein, UniProt P37217 1-199, looked up)
chain: MDSENCSITENSSSHLERGQKDHGTSIHFEKHHEGSIQVSIPWAVLIVVLITSLIIALIALNVGKYNCPGLYEKLESSDHHVATCKNEWISYKRTCYFFSTTTKSWALAQRSCSEDAATLAVIDSEKDMTFLKRYSGELEHWIGLKNEANQTWKWANGKEFNSWFNLTGSGRCVSVNHKNVTAVDCEANFHWVCSKPSR
fold interaction compared with the control proteins NKRp1A and S1P3: 10 fold
